B1: ISD (biotinylated) (dsDNA)
DNA 1: TACAGATCTACTAGTGATCTATGACTGATCTGTACATGATCTACA
DNA 2: TGTAGATCATGTACAGATCAGTCATAGATCACTAGTAGATCTGTA
B2: ISD (unlabeled competitor) (dsDNA)
DNA 1: B1 DNA 1
DNA 2: B1 DNA 2

How the values were obtained:
GST-IFIX-HIN200 [1] = biological target: T1, GST-IFIX-HIN200 (human, UniProt Q6K0P9 200-492); assay: EMSA; 2 pmol protein, 20 fmol DNA; EMSA: 10 mM Tris pH 7.5, 50 mM KCl, 1 mM DTT, 50 μg/ml BSA, ambient temperature, 30 min; settings: protein: recombinant; tags: N-terminal GST (pGEX-4T1); label: 5'-biotin on sense strand; blunt
T1 sequence: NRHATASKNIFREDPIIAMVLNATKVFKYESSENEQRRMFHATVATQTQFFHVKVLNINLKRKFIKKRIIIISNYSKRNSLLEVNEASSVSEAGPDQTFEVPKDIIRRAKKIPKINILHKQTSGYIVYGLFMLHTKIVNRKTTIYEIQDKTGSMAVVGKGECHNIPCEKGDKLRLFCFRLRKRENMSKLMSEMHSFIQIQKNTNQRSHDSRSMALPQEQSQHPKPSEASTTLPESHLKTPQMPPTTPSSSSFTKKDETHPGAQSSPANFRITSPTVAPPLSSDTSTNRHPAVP

GST-IFIX-HIN200 [2] = biological target: T1, GST-IFIX-HIN200; assay: competition; unlabeled ISD competes with biotinylated ISD (EMSA); EMSA: 10 mM Tris pH 7.5, 50 mM KCl, 1 mM DTT, 50 μg/ml BSA, ambient temperature, 30 min; settings: protein: recombinant; tags: N-terminal GST (pGEX-4T1); blunt

| Binder | binding result (GST-IFIX-HIN200 [1]) | binding result (GST-IFIX-HIN200 [2]) |
| --- | --- | --- |
| B1 | binds | – |
| B2 | – | binds |
